Test results published in PMC11840927, “Frataxin Traps Low Abundance Quaternary Structure to Stimulate Human Fe–S Cluster Biosynthesis” (Biochemistry, 2025).

B1: Escherichia coli acyl-carrier protein (natural protein)
chain: MSTIEERVKKIIGEQLGVKQEEVTNNASFVEDLGADSLDTVELVMALEEEFDTEIPDEEAEKITTVQAAIDYINGHQA
modifications: acyl-4′PPT (assumed mass 523 Da)
notes: Escherichia coli acyl-carrier protein (ACPec) associated with NFS1-ISD11; The ACP chain of m1; also called ACPec; ACP; source: co-purified within the SDAec complex

How the values were obtained:
[1] = molecular target: SDAec complex with the Q64S, P299H, L300Q NFS1 triple variant (human | Escherichia coli) (UniProt Q9Y697)
[2] = molecular target: T1, NFS1(Δ1–55) with N-terminal His6 tag (human, UniProt Q9Y697 56-457, covalently attached PLP); assay: native MS; protomer exchange: 1:1 mix of 15N- and 14N-labelled SDAec (or His-tagged and untagged IscS), room temperature, 200 mM ammonium acetate pH 8.5, EMR Orbitrap; ratio of exchanged dimer to the sum of unexchanged dimers; α2β2γ2 (or IscS dimer) to protomers and back; conditions: both partners purified
T1 construct: NFS1, human cysteine desulfurase, Δ1–55 (residues 56 to the C-terminus); The NFS1 chain of m1; also called α subunit; source: recombinant, co-purified within the SDAec complex; not shown: His6, N-terminal, kept

Molecule | FXN-stimulated cysteine desulfurase activity (μM S^2–/min·μM NFS1) [1] | binding result [2]
FXN (Δ1–81) (from UniProt Q16595 82-210) (natural protein) | 8 | –
B1 | – | binds
